Measurements: patent US20220177549A1

How the values were obtained:
[1] = target: porcine FcRn complex (porcine) (UniProt Q07717); test: SPR (Biacore 8K+), pH 5.9, 25 C; FcRn captured by anti-His, IgG as analyte; steady state affinity
[2] = target: ovine FcRn complex (ovine) (UniProt Q6QAT4); test: as above
[3] = target: ovine FcRn complex (ovine) (UniProt Q6QAT4); test: SPR (Biacore 8K+), pH 5.9, 25 C; FcRn captured by anti-His, IgG as analyte; 1:1 kinetic model
[4] = target: bovine FcRn complex (bovine) (UniProt F6R592); test: as above
Chain of bovine FcRn complex (bovine) (chain, as listed by the source, chain 1 of 2): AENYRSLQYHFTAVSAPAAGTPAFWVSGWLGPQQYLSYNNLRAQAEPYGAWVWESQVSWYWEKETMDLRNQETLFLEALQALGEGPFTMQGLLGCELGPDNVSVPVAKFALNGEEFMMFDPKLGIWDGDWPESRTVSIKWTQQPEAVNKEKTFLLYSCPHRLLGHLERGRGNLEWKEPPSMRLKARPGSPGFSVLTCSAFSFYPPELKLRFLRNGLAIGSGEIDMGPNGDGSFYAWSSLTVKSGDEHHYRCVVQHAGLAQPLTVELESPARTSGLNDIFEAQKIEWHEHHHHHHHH
Chain of bovine FcRn complex (bovine) (P01888 other isoform, or with tags, fused parts or gaps, chain 2 of 2): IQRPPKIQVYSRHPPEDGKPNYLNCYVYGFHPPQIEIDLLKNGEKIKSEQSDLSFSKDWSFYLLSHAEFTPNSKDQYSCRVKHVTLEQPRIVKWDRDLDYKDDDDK

Chain of ovine FcRn complex (ovine) (main, as listed by the source, chain 1 of 2): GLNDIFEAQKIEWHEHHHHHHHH
Chain of ovine FcRn complex (ovine) (Q6QAT4 other isoform, or with tags, fused parts or gaps, chain 2 of 2): as the sequence (P01888 other isoform, or with tags, fused parts or gaps, chain 2 of 2) above, with P4I, K6E, I7V, K82N, E87T, R90K counted along it
Chain of porcine FcRn complex (porcine) (Q07717 other isoform, or with tags, fused parts or gaps, chain 2 of 2): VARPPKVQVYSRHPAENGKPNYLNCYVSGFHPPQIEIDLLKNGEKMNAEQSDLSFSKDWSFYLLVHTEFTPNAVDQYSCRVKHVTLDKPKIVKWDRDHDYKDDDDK

Row | Binder | Fold increase over wild-type KD [3] | Kd [3] | also measured
1 | Porcine wild-type (antibody, part only; not given: variable domains and light chain, IgG1a, not shown: another chain or arm of the molecule) Fc: GCEVAGPSVFIFPPKPKDTLMISQTPEVTCVVVDVSKEHAEVQFSWYVDGVEVHTAETRPKEEQFNSTYRVVSVLPIQHQDWLKGKEFKCKVNNVDLPAPITRTISKAIGQSREPQVYTLPPPAEELSRSKVTVTCLVIGFYPPDIHVEWKSNGQPEPEGNYRTTPPQQDVDGTFFLYSKLAVDKARWDHGETFECAVMHEALHNHYTQKSISKTQGK |  |  | Fold increase over wild-type KD [1]: 1 fold
2 | Ovine wild-type (antibody, part only; not given: variable domains and light chain, IgG1, not shown: another chain or arm of the molecule) Fc: PELPGGPSVFIFPPKPKDTLTISGTPEVTCVVVDVGQDDPEVQFSWFVDNVEVRTARTKPREEQFNSTFRVVSALPIQHQDWTGGKEFKCKVHNEALPAPIVRTISRTKGQAREPQVYVLAPPQEELSKSTLSVTCLVTGFYPDYIAVEWQKNGQPESEDKYGTTTSQLDADGSYFLYSRLRVDKNSWQEGDTYACVVMHEALHNHYTQKSISKPPGK |  |  | Fold increase over wild-type KD [2]: 1 fold
3 | Ovine T252Y (antibody, part only; not given: variable domains and light chain, IgG1, not shown: another chain or arm of the molecule) Fc: PELPGGPSVFIFPPKPKDTLYISGTPEVTCVVVDVGQDDPEVQFSWFVDNVEVRTARTKPREEQFNSTFRVVSALPIQHQDWTGGKEFKCKVHNEALPAPIVRTISRTKGQAREPQVYVLAPPQEELSKSTLSVTCLVTGFYPDYIAVEWQKNGQPESEDKYGTTTSQLDADGSYFLYSRLRVDKNSWQEGDTYACVVMHEALHNHYTQKSISKPPGK | 11 fold | 43.1 nM | 
4 | Bovine N434Y (antibody, part only; not given: variable domains and light chain, IgG1, not shown: another chain or arm of the molecule) Fc: PPELPGGPSVFIFPPKPKDTLTISGTPEVTCVVVDVGHDDPEVKFSWFVDNVEVNTATTKPREEQFNSTYRVVSALRIQHQDWTGGKEFKCKVHNEGLPAPIVRTISRTKGPAREPQVYVLAPPQEELSKSTVSLTCMVTSFYPDYIAVEWQRNGQPESEDKYGTTPPQLDADSSYFLYSKLRVDRNSWQEGDTYTCVVMHEALHYHYTQKSTSKSA |  |  | Fold increase over wild-type KD [4]: 42 fold; Kd [4]: 11.9 nM
5 | Bovine Y436H (antibody, part only; not given: variable domains and light chain, IgG1, not shown: another chain or arm of the molecule) Fc: PPELPGGPSVFIFPPKPKDTLTISGTPEVTCVVVDVGHDDPEVKFSWFVDNVEVNTATTKPREEQFNSTYRVVSALRIQHQDWTGGKEFKCKVHNEGLPAPIVRTISRTKGPAREPQVYVLAPPQEELSKSTVSLTCMVTSFYPDYIAVEWQRNGQPESEDKYGTTPPQLDADSSYFLYSKLRVDRNSWQEGDTYTCVVMHEALHNHHTQKSTSKSA |  |  | Fold increase over wild-type KD [4]: 2.3 fold; Kd [4]: 224 nM

Second part, led by results:

Row | Fold increase over wild-type KD [3] | Kd [3] | Binder | also measured
6 | 5.4 fold | 92.7 nM | Ovine Q311V (antibody, part only; not given: variable domains and light chain, IgG1, not shown: another chain or arm of the molecule) Fc: PELPGGPSVFIFPPKPKDTLTISGTPEVTCVVVDVGQDDPEVQFSWFVDNVEVRTARTKPREEQFNSTFRVVSALPIQHVDWTGGKEFKCKVHNEALPAPIVRTISRTKGQAREPQVYVLAPPQEELSKSTLSVTCLVTGFYPDYIAVEWQKNGQPESEDKYGTTTSQLDADGSYFLYSRLRVDKNSWQEGDTYACVVMHEALHNHYTQKSISKPPGK | 
7 | 81 fold | 6.09 nM | Ovine N434Y (antibody, part only; not given: variable domains and light chain, IgG1, not shown: another chain or arm of the molecule) Fc: PELPGGPSVFIFPPKPKDTLTISGTPEVTCVVVDVGQDDPEVQFSWFVDNVEVRTARTKPREEQFNSTFRVVSALPIQHQDWTGGKEFKCKVHNEALPAPIVRTISRTKGQAREPQVYVLAPPQEELSKSTLSVTCLVTGFYPDYIAVEWQKNGQPESEDKYGTTTSQLDADGSYFLYSRLRVDKNSWQEGDTYACVVMHEALHYHYTQKSISKPPGK | 
8 | 3 fold | 166 nM | Ovine M428Y (antibody, part only; not given: variable domains and light chain, IgG1, not shown: another chain or arm of the molecule) Fc: PELPGGPSVFIFPPKPKDTLTISGTPEVTCVVVDVGQDDPEVQFSWFVDNVEVRTARTKPREEQFNSTFRVVSALPIQHQDWTGGKEFKCKVHNEALPAPIVRTISRTKGQAREPQVYVLAPPQEELSKSTLSVTCLVTGFYPDYIAVEWQKNGQPESEDKYGTTTSQLDADGSYFLYSRLRVDKNSWQEGDTYACVVYHEALHNHYTQKSISKPPGK | 
9 | 6.3 fold | 79.3 nM | Ovine Q309V (antibody, part only; not given: variable domains and light chain, IgG1, not shown: another chain or arm of the molecule) Fc: PELPGGPSVFIFPPKPKDTLTISGTPEVTCVVVDVGQDDPEVQFSWFVDNVEVRTARTKPREEQFNSTFRVVSALPIVHQDWTGGKEFKCKVHNEALPAPIVRTISRTKGQAREPQVYVLAPPQEELSKSTLSVTCLVTGFYPDYIAVEWQKNGQPESEDKYGTTTSQLDADGSYFLYSRLRVDKNSWQEGDTYACVVMHEALHNHYTQKSISKPPGK | 
